Target: mitochondrial antiviral signaling protein (MAVS), full length, Flag-tagged (human (cDNA from HEK293T)) (UniProt Q7Z434)
Sequence of UniProt Q7Z434 (Q7Z434 whole entry): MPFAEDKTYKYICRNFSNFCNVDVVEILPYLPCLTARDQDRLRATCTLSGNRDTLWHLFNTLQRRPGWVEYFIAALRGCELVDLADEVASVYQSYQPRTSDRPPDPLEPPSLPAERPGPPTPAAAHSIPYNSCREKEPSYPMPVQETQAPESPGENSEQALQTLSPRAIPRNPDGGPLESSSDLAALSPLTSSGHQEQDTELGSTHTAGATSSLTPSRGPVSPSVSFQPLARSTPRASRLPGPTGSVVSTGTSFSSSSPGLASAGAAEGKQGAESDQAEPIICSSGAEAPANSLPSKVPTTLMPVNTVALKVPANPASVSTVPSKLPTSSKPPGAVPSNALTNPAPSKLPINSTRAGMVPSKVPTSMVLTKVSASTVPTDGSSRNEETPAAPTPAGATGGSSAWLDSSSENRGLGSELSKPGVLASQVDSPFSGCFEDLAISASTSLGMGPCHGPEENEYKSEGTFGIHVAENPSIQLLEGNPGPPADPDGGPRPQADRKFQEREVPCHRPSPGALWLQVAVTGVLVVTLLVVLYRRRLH

For “EV-D68 structural protein VP3, HA-tagged (from UniProt Q68T42 318-552) (natural protein)”, which inhibition of MAVS-activated NF-κB promoter activity, dual-luciferase reporter in HEK293T, 600 ng VP3-HA plasmid is on record?
The inhibition of MAVS-activated NF-κB promoter activity, dual-luciferase reporter in HEK293T, 600 ng VP3-HA plasmid was 70%.

— paper PMC11998529
